Usually stoichiometry N stands for a count of units in the complex or per binding partner.

This assay addresses Ultramarine fluorescent protein. In words: AUC.

As to Ultramarine fluorescent protein, the stoichiometry N was found to be 2.

These data come from article PMC10276540.
